Patent publication US20200207859A1 (priority 2017, published 2020)

What was measured:
Assay in all cases: Cell binding assay (FACS), anti-CD74 antibody without conjugation
CD74 [1] = target: T1, CD74 (Homo sapiens, UniProt P04233)
T1 construct: endogenous in cells; host or cells: B-lymphoma, multiple myeloma and leukemia cell lines
T1 sequence (P04233 1-296): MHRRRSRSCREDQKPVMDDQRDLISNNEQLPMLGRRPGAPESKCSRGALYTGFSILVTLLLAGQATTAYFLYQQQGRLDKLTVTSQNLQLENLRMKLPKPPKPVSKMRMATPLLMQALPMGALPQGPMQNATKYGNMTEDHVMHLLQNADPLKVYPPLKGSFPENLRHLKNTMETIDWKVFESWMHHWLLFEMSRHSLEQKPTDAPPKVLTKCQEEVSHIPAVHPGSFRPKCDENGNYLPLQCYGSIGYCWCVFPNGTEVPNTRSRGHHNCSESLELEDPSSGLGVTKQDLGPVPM
Experimental: (§1) Cell lines were maintained in RPMI, high glucose (Cellgro-Mediatech; Manassas, Va.) supplemented with 20% heat-inactivated fetal bovine serum (Hyclone; Thermo Scientific; Waltham, Mass.), 2 mM glutamax (Invitrogen; Carlsbad, Calif.) and 1× Pencillin/streptomycin (Cellgro-Mediatech; Manassas, Va.). Cells were harvested and re-suspended in FACS buffer (DPBS buffer supplemented with 1% bovine serum albumin). […] Cells were washed twice with ice-cold FACS buffer and incubated with 5 ug/ml Alexa 647 labeled donkey anti-human IgG antibody (Jackson Immune-Research) on ice for another 60 mins. Unstained cells and cells stained with secondary antibody alone were used as controls. Samples were then washed twice using FACS buffer and analyzed using a BD FACS Canto system. Mean fluorescence intensities were fitted using non-linear regression analysis with one site specific binding equation on GraphPad Prism. Data was expressed as geometric mean fluorescent intensity vs. antibody concentration in nM.

CD74 [2] = target: T1, CD74; design: unit: geometric MFI
Experimental: as §1

CD74 [3] = target: T1, CD74; design: key: NK = no killing; NB = no binding
Experimental: as §1

B1: anti-CD74 (antibody, V domains shown)
VH: QVQLVESGGGVVQPGRSLRLSCAASGFNFSDYGMHWVRQAPGKGLEWVAVIWYDGSISYYADSVKGRFTISRDNSKNTLYLQMNSLRAEDTAVYYCARGGTVEHGAVYGTDVWGQGTTVTVSS
VL: DIQMTQSPSSVSASVGDRVTITCRASQGIGSWLAWYQQKPGKAPKLLIYAADRLQSGVPSRFSGSGSGTDFTLTISSLQPEDFATYYCQQYHTYPLTFGGGTKVEIK
modifications: non-natural residues
Kd (CD74 [1]; ARD (MM) cells): 2.6 nM
Kd (CD74 [1]; BDCM (AML) cells): 4.5 nM
Kd (CD74 [1]; JVM-13 (CLL) cells): 2.5 nM
Kd (CD74 [1]; RPMI-6666 (HL) cells): 2.3 nM
Kd (CD74 [1]; RPMI-8226 (MM) cells): 3.6 nM
Kd (CD74 [1]; SU-DHL-6 (NHL) cells): 2 nM
Kd (CD74 [1]; SUP-B15 (ALL) cells): 3.5 nM
Cell Binding Bmax (CD74 [2]; ARD (MM) cells): 190
Cell Binding Bmax (CD74 [2]; ARP-1 (MM) cells): 341
Cell Binding Bmax (CD74 [2]; BDCM (AML) cells): 3059
Cell Binding Bmax (CD74 [2]; JVM-13 (CLL) cells): 447
Cell Binding Bmax (CD74 [2]; RPMI-6666 (HL) cells): 3879
Cell Binding Bmax (CD74 [2]; RPMI-8226 (MM) cells): 119
Cell Binding Bmax (CD74 [2]; SU-DHL-6 (NHL) cells): 1565
Cell Binding Bmax (CD74 [2]; SUP-B15 (ALL) cells): 680
Cell Binding Bmax (CD74 [3]; K562 (CML) cells): NB
Cell Binding Bmax (CD74 [3]; OPM-2 (MM) cells): NB
